Results from patent US20170233490A1 (Hoffmann-La Roche, published 2017).

How the values were obtained:
Assay in all cases: SPR Biacore 3000, 37 C
[1] = target: T1, HER3 ECD-HRG complex (human, UniProt P21860 20-643)
T1 construct: HER3 ECD preincubated with a 3- to 6-fold molar excess of Heregulin ('open' conformation); biotinylated Her3-ECD in the ribosome display; also called HER3-ECD/HRG1β

[2] = target: T2, human HER4 Extracellular Domain (ECD) (human, UniProt Q15303 26-651)
T2 construct: also called Her4 ECD; HER4-ECD
T2 sequence: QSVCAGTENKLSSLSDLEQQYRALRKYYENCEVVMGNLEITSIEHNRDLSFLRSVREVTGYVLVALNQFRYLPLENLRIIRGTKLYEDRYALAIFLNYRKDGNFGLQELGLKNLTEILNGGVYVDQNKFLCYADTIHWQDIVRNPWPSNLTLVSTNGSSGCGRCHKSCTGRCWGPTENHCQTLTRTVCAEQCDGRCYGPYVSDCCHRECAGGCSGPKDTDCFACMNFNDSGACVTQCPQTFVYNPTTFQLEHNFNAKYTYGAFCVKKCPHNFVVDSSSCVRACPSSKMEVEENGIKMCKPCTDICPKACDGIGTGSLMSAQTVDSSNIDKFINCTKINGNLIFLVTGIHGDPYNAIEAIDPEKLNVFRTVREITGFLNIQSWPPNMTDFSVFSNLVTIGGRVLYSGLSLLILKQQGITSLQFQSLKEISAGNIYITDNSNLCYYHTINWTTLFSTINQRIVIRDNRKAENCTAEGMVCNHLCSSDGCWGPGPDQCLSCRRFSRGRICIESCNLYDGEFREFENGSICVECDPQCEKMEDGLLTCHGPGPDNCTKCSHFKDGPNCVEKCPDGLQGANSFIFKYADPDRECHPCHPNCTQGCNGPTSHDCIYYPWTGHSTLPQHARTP

[3] = target: T3, HER4 ECD-HRG complex (human, UniProt Q15303 26-651)
T3 construct: HER4 ECD preincubated with a 5-fold molar excess of Heregulin
T3 sequence 1: T2 sequence
T3 sequence 2: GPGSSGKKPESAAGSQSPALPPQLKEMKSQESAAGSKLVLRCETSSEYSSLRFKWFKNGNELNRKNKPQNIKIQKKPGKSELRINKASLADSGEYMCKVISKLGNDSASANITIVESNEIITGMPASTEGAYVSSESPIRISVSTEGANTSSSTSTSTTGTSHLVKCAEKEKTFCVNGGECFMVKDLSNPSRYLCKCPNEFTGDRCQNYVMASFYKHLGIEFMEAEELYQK

[4] = target: T4, human HER3 Extracellular Domain (ECD) (human, UniProt P21860 20-643)
T4 construct: human recombinant, 68 kDa; 'closed' conformation without ligand; also called Her3 ECD; Her-3 ECD

B1: humanized variant VH-A/VL-D of anti-HER3 antibody M-05-74 (antibody, V domains shown)
VH: QVQLVQSGAELKKPGASVKVSCRTSGYTLTDYWIHWVRQAPGQGLEWMGYINPYTGYTESNQKFKDRVAMTRDASINTAYMELTSLRSDDTAVYYCARPYYYGDYWGQGTLVTVSS
VL: EIVLTQSPATLSLSPGERATLSCSASSSVSYMHWFQQKPGQPPRLLIYSTSNLASGIPARFSGSGSGTDFTLTISSLEPEDFAVYYCQQRSSYPFTFGGGTKVEIK
notes: also called humanized DIB-74
Which results are given for B1?
Kd [1]: 10 nM; MR [1]: 0.8; koff [1]: 0.002 s⁻¹; kon [1]: 190000 M⁻¹ s⁻¹; t/2diss [1]: 6 min; binding result [2]: no binding; Kd [3]: 211 nM; MR [3]: 0.8; koff [3]: 0.038 s⁻¹; kon [3]: 180000 M⁻¹ s⁻¹; t/2diss [3]: 0.3 min; Kd [4]: 23 nM; MR [4]: 0.7; koff [4]: 0.00044 s⁻¹; kon [4]: 19000 M⁻¹ s⁻¹; t/2diss [4]: 26 min
